For test [1], the target named is T1, PS2-C term bait (LexA fusion, COOH-terminal sequence of PS2 downstream of the eighth TMD) (human).
T1 construct: also called PS2-COOH-terminal construct; PS2-COOH-terminal domain; not shown: LexA moiety of pEG202, NH2-terminal of the bait
Briefly: yeast two-hybrid liquid beta-galactosidase assay. On the procedure:
(§1) All PCR-amplified regions were digested with EcoRI and XhoI, cloned into pEG202, and confirmed by DNA sequencing. These various baits were transformed into EGY48 and found by immunoblotting of yeast extracts to express appropriately sized lexA-PS fusion polypeptides. Three isolates from yeast transformed with the calmyrin in pJG4-5 (clone 7) plus each PS bait or the control lamin bait were assayed for β-galactosidase enzyme activity in liquid cultures using ONPG (O-nitrophenyl β-D-galactopyranoside) as a substrate (Reynolds and Lundblad, 1989).
To quantify the binding specificity of calmyrin to the PS2-loop and to determine if this protein also interacts with the PS1 loop which is 45% identical in amino acid sequence, the galactosidase activity was measured in yeast liquid assays.

Test [2] concerns the target T2, PS1-loop C bait (LexA fusion, region of PS1 corresponding to PS2-loop C) (human).
T2 construct: not shown: LexA moiety of pEG202, NH2-terminal of the bait
Briefly: yeast two-hybrid liquid assay, PS1-loop C against PS2-loop C.

Test [3] addresses T3, PS1-loop C bait with T281P, L282I (human).
T3 construct: Range inferred as for PS1-loop C; not shown: LexA moiety of pEG202 (N-terminal fusion partner) and the vector-encoded junction residues
In words: yeast two-hybrid liquid assay, mutated PS1-loop C bait against the T281P bait. On the procedure: (§2) Three isolates from yeast transformed with the calmyrin in pJG4-5 (clone 7) plus each PS bait or the control lamin bait were assayed for β-galactosidase enzyme activity in liquid cultures using ONPG (O-nitrophenyl β-D-galactopyranoside) as a substrate (Reynolds and Lundblad, 1989).
(§3) Further investigation was performed to determine how these three divergent residues influenced calmyrin interaction with the PS-loop C region in yeast two-hybrid assays. […] When both proline and alanine were present together (T281P, T291A) they increased binding substantially, producing an approximately twofold higher level of binding compared with the wild-type PS2-loop bait.

The target in test [4] is T4, PS1-loop C bait with L282I, T291A (human).
T4 construct: Range inferred as for PS1-loop C; not shown: LexA moiety of pEG202 (N-terminal fusion partner) and the vector-encoded junction residues
In words: yeast two-hybrid liquid assay, mutated PS1-loop C bait against the T291A bait. On the procedure: as §2, §3

The target in test [5] is T5, PS1-loop C bait with T281P (human).
T5 construct: Range inferred as for PS1-loop C; not shown: LexA moiety of pEG202 (N-terminal fusion partner) and the vector-encoded junction residues
In words: yeast two-hybrid liquid assay, mutated PS1-loop C bait against PS2-loop C bait. On the procedure:
as §2, §3

Test [6] addresses T6, PS1-loop C bait with T291A (human).
T6 construct: Range inferred as for PS1-loop C; not shown: LexA moiety of pEG202 (N-terminal fusion partner) and the vector-encoded junction residues
The test is described as above. On the procedure: as §2, §3

Test [7] addresses T7, PS1-loop C bait with T281P, T291A (human).
T7 construct: Range inferred as for PS1-loop C; also called (T281P, T291A) double mutant; not shown: LexA moiety of pEG202 (N-terminal fusion partner) and the vector-encoded junction residues
The test is described as above. On the procedure: as §2, §3

Test [8] addresses T8, PS1-loop B bait (LexA fusion, region of PS1 corresponding to PS2-loop B) (human, UniProt P49768 264-315).
T8 construct: not shown: LexA moiety of pEG202, NH2-terminal of the bait
Briefly: yeast two-hybrid liquid beta-galactosidase assay (ONPG), LexA bait and calmyrin prey. On the procedure:
as §1
(§4) To further map the binding site of calmyrin within the PS2-loop, two new baits were constructed which divided the loop into a conserved portion, loop C (28 out of the 31 amino acids are identical to PS1 ), and a divergent region, loop D (only 33% identity to PS1; FIG. 1).

In test [9] the target is T2, PS1-loop C bait (LexA fusion, region of …). The description is as above. The method, then: as §1, §4
Test [10] concerns the target T9, PS2-loop B bait (LexA fusion, first 50 amino acids of the PS2 loop) (human, UniProt O88777 270-319 (rat entry)).
T9 construct: Range 270-319 follows from 'residues 270-361' and 'the first 50 amino acids of the PS2 loop'; also called PS2-loop bait; loop bait; not shown: LexA moiety of the pEG202 LexA fusion plasmid, NH2-terminal of the bait
The description is as above. The method, then:
as §1, §4

The target in test [11] is T10, PS2-loop C bait (LexA fusion, conserved 31-amino acid loop region of PS2) (human).
T10 construct: Range 270-300 follows from loop start 270 and '31 amino acids'; also called wild-type PS2-loop bait; not shown: LexA moiety of pEG202, NH2-terminal of the bait
The description is as above. On the procedure:
as §1, §4

In test [12] the target is T11, PS2-loop D bait (LexA fusion, divergent region of the PS2 loop) (human, also: N-terminal LexA (pEG202) fusion, limits and linker not given here).
T11 construct: Range 301-319 is inferred from loop B being divided into loop C (31 aa) and loop D; not shown: LexA moiety of pEG202, NH2-terminal of the bait
T11 chain: TVGMAKLDPSSQGALQLPY
The description is as above. On the procedure: as §1, §4

Test [13] deals with full-length human presenilin 2 (PS2) expressed in HeLa cells (human, UniProt P49810 1-448). Briefly: cell-based or functional assay.

The text below walks through data of patent US20020064828A1 (UNIVERSITY OF BALTIMORE BIOTECHNOLOGY INSTITUTE, published 2002).

Where no end group is shown, it is not given here.

T9 sequence (O88777 270-319 limits assumed): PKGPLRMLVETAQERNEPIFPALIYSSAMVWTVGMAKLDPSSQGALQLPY
T1 sequence (chain, as listed by the source limits assumed): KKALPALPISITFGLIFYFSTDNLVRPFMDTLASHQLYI

B1: calmyrin (calcium-binding myristoylated protein with homology to calcineurin), yeast two-hybrid prey in pJG4-5 (clone 7) (other, not shown: large carriers)
chain: MGGSGSRLSKELLAEYQDLTFLTKQEILLAHRRFCELLPQEQRTVESSLRAQVPFEQILSLPELKANPFKERICRVFSTSPAKDSLSFEDFLDLLSVFSDTATPDIKSHYAFRIFDFDDDGTLNREDLSRLVNCLTGEGEDTRLSASEMKQLIDNILEESDIDRDGTINLSEFQHVISRSPDFASSFKIVL
notes: Prey fusion in yeast; also called CIB; KIP
As to B1, the results for the binding result in test [1] and in test [4] were “no binding” and “binds”, respectively. Further, in test [2], the “interaction strength relative to the PS2-loop region” value is < 0.1 fraction of the PS2-loop strength. Also, the “fold binding compared with the T281P bait” value in [3] came out at 1.7 fold. Besides, in test [5], the “interaction relative to the PS2 level” value is ~0.5 fraction of the PS2 level. Moreover, the “binding relative to the PS2 level” value in test [6] is 0.33 fraction of the PS2 level. For the same molecule, the “fold level of binding compared with the wild-type PS2-loop bait” value in [7] was about 2 fold. For the same molecule, the “fold increase in beta-galactosidase activity over lamin B control” value stood at 1.9 fold in test [8] and 8.5 fold in [10]. The figures for the “fold increase in beta-galactosidase activity over control” value in test [9], in test [11] and in test [12] were 5.8 fold, 74 fold and 2.2 fold, respectively.

B2: untagged full-length wild type calmyrin expressed in HeLa cells (other)
chain: GGSGSRLSKELLAEYQDLTFLTKQEILLAHRRFCELLPQEQRTVESSLRAQVPFEQILSLPELKANPFKERICRVFSTSPAKDSLSFEDFLDLLSVFSDTATPDIKSHYAFRIFDFDDDGTLNREDLSRLVNCLTGEGEDTRLSASEMKQLIDNILEESDIDRDGTINLSEFQHVISRSPDFASSFKIVL
modifications: myristoylated (NH2 consensus myristoylation site; 3H-myristic acid incorporated)
For the molecule B2, the “cell death (floating HeLa cells), fold over control, on coexpression” value in test [13] is 5.9 fold.
